Measurements reported in publication PMC11387744.

Target: KDM2B^F-box-LRRs/SKP1 dimer (UniProt Q8NHM5)
Experiment: ITC

KDM2B^F-box-LRRs/SKP1 dimer, sequence (Q8NHM5 1059-1336, chain 1 of 2): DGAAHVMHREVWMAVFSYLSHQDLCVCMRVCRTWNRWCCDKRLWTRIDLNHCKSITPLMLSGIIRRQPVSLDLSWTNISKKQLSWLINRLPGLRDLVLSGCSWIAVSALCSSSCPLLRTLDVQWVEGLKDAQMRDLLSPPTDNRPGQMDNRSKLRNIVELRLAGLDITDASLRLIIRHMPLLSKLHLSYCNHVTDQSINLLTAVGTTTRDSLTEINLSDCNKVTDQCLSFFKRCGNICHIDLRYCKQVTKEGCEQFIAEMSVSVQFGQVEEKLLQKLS
KDM2B^F-box-LRRs/SKP1 dimer, sequence (P63208 2-163, chain 2 of 2, further chain): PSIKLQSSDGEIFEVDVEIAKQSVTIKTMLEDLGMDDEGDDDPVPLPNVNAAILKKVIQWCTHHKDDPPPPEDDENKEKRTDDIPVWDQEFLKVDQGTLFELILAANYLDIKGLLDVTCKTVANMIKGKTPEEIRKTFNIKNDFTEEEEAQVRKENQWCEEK

Substance | fold reduction of the affinity against the wild-type pair
BCOR^N1607 (D/E on Poly-D/E^2nd (1607–1611) mutated to Ala)/PCGF1^RAWUL (from UniProt Q6W2J9 1607-1755; Q9BSM1 150-255) (complex) | > 2.5 fold
BCOR^N1607 (D/E on Poly-D/E^3rd (1624–1631) mutated to Ala)/PCGF1^RAWUL (from UniProt Q6W2J9 1607-1755; Q9BSM1 150-255) (complex) | > 12 fold
